Measured values published in PMC3887213.

Experiments:
Test in all cases: two-hybrid; quantitative YTH (Q-YTH): chlorophenol-red-β-D-galactopyranoside colour change at 540 nm, background (bait + empty pACT2) subtracted, normalised to wild-type RocCOR = 100%
[1] = biological target: LRRK2 RocCOR tandem domain R1441H (LexA-BD bait) (human) (UniProt Q5S007)
[2] = biological target: LRRK2 RocCOR tandem domain R1441G (LexA-BD bait) (human) (UniProt Q5S007)
[3] = biological target: LRRK2 RocCOR tandem domain R1441C (LexA-BD bait) (human) (UniProt Q5S007)
Chain of LRRK2 RocCOR tandem domain R1441C (LexA-BD bait) (human) (Q5S007 whole entry R1441C, the tested form may be a part): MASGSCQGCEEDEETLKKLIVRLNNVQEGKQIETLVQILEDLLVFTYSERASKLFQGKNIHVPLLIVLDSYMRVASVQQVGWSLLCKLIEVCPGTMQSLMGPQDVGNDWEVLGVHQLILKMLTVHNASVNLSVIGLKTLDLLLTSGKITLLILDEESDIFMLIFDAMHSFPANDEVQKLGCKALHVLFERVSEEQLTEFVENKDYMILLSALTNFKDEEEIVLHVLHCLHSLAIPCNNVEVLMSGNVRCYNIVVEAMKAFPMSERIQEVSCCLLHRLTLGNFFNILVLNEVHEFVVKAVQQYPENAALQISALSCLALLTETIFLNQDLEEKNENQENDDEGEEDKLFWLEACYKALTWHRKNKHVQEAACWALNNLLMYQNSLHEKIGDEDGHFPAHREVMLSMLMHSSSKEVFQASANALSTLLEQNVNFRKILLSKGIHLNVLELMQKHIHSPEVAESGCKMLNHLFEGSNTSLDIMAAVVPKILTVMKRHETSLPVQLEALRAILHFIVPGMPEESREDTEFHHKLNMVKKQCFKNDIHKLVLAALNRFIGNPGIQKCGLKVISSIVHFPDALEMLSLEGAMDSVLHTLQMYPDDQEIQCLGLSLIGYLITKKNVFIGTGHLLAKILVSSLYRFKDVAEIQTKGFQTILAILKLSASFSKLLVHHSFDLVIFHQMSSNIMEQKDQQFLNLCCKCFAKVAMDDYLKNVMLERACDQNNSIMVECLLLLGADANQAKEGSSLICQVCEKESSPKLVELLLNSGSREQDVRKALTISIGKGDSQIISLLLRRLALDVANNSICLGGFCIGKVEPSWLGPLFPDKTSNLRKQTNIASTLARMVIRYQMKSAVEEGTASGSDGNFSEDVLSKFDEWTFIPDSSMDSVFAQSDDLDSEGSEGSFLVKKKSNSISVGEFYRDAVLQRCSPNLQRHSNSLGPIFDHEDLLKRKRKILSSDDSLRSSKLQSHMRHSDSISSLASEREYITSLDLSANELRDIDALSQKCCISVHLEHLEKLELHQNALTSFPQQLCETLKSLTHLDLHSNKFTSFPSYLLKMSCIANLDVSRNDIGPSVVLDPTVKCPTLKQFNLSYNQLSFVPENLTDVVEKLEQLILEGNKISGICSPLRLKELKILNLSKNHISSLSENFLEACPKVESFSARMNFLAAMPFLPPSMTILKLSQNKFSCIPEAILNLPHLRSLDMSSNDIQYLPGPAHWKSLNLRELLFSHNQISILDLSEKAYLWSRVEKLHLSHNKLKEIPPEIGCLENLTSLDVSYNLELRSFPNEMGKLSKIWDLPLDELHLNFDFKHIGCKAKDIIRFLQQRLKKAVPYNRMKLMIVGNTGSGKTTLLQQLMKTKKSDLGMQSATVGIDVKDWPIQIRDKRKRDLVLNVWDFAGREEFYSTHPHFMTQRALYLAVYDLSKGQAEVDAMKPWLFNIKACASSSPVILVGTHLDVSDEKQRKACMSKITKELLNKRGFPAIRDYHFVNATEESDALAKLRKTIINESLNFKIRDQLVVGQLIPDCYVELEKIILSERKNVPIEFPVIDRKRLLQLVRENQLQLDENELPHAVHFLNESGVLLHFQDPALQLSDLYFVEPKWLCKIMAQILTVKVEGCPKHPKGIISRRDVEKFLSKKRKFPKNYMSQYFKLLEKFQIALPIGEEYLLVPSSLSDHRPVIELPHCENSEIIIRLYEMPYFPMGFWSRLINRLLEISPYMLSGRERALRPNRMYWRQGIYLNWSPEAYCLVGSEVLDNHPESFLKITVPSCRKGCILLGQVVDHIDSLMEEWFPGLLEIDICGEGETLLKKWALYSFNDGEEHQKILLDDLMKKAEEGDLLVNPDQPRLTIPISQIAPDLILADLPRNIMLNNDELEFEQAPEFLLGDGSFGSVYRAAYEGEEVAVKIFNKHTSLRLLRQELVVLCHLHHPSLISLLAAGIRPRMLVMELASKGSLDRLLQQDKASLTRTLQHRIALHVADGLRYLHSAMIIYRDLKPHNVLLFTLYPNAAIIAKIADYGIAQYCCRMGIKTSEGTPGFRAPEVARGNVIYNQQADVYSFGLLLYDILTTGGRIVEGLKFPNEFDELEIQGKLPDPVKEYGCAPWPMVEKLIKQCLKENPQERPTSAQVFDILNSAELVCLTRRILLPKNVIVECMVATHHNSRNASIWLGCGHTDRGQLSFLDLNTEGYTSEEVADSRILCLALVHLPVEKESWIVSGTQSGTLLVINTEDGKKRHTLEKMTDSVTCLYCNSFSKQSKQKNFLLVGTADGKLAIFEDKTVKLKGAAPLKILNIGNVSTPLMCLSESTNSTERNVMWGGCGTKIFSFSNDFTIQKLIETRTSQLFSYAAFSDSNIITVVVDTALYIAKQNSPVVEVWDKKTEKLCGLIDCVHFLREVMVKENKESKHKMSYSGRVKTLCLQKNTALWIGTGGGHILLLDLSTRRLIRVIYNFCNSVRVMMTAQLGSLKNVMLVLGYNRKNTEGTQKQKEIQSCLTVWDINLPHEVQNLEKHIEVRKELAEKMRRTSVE

Chain of TUBB4 C terminus (Phe-317 to Ala-444), GAL4-AD prey (P04350 317-444): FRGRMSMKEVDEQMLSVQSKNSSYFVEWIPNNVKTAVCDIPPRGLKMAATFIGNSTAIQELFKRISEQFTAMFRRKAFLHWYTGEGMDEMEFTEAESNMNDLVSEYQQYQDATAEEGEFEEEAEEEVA
Chain of TUBB C terminus (Phe-317 to the stop codon), GAL4-AD prey (P07437 317-444): as the sequence (P04350 317-444) above, with S16N, S19N, A49V, G117E, F119D, E120F, E121G, A123E, E124A, V127E counted along it
Chain of LRRK2 RocCOR tandem domain R1441G (LexA-BD bait) (human) (Q5S007 whole entry R1441G, the tested form may be a part): as the sequence (Q5S007 whole entry R1441C, the tested form may be a part) above, with C1441G counted along it
Chain of LRRK2 RocCOR tandem domain R1441H (LexA-BD bait) (human) (Q5S007 whole entry R1441H, the tested form may be a part): as the sequence (Q5S007 whole entry R1441C, the tested form may be a part) above, with C1441H counted along it

TUBB4 C terminus (Phe-317 to Ala-444), GAL4-AD prey (from UniProt P04350 317-444) (domain or fragment)
percent reduction of the interaction against wild-type RocCOR (Q-YTH) [1]: 25% | percent reduction of the interaction against wild-type RocCOR (Q-YTH) [2]: 50% | percent increase of the interaction against wild-type RocCOR (Q-YTH) [3]: 25%

TUBB C terminus (Phe-317 to the stop codon), GAL4-AD prey (from UniProt P07437 317-444) (domain or fragment)
percent reduction of the interaction against wild-type RocCOR (Q-YTH) [1]: 25% | percent reduction of the interaction against wild-type RocCOR (Q-YTH) [2]: 50% | percent increase of the interaction against wild-type RocCOR (Q-YTH) [3]: 25%
